# Tests used:
# [1] = target: T1, monovalent hVISTA-ECD (amino acids 32-193 of SEQ ID NO: 1 with a 7xHis tail) (UniProt Q9H7M9 33-193); assay: SPR; pH 7.4
# [2] = target: T1, monovalent hVISTA-ECD (amino acids …); assay: SPR; pH 6.0
# [3] = target: T1, monovalent hVISTA-ECD (amino acids …); assay: SPR; pH 6.7
# [4] = target: T1, monovalent hVISTA-ECD (amino acids …); assay: SPR; pH 6.0; remark: listed apart in the source
# [5] = target: T1, monovalent hVISTA-ECD (amino acids …); assay: SPR; pH 6.7; remark: listed apart in the source
# T1 sequence (Q9H7M9 other isoform, or with tags, fused parts or gaps): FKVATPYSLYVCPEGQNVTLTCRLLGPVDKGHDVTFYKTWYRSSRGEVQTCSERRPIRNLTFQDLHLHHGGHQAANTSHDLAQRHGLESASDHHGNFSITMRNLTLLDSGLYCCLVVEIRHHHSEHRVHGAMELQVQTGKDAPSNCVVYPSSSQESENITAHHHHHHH
Binder,Kd [1],Kd [2],Kd [3],Kd [4],Kd [5]
"P1-068761_H100G_E100fF (antibody, V domains shown) VH: EVQLVESGGGLVQPGKSLRLSCAASGFTLEDEAMHWVRQAPGKGLEWVSGINWNSEEIGYADSVKGRFTISRDNAKNSLYLQMNSLRTEDTALYYCAKVPGYSGGWIDAFDVWGQGTMVTVSS VL: not shown",41 nM,0.23 nM,2.3 nM,–,–
"P1-068761_E32Y_H100G (antibody, V domains shown) VH: EVQLVESGGGLVQPGKSLRLSCAASGFTLEDYAMHWVRQAPGKGLEWVSGINWNSEEIGYADSVKGRFTISRDNAKNSLYLQMNSLRTEDTALYYCAKVPGYSGGWIDAEDVWGQGTMVTVSS VL: not shown",72 nM,0.48 nM,5 nM,–,–
"P1-070914 (P1-068767_E30D_D52N) (antibody, V domains shown) VH: EVQLVESGGGLVQPGKSLRLSCAASGFTLDDYAMHWVRQAPGKGLEWVSGINWNSENIGYADSVKGRFTISRDNAKNSLYLQMNSLRTEDTALYYCAKVPGYSGGWIDAEDDWGQGTMVTVSS VL: not shown",–,–,–,5.8 nM,120 nM
"P1-068761_E30D_E100fF (antibody, V domains shown) VH: EVQLVESGGGLVQPGKSLRLSCAASGFTLDDEAMHWVRQAPGKGLEWVSGINWNSEEIGYADSVKGRFTISRDNAKNSLYLQMNSLRTEDTALYYCAKVPGYSHGWIDAFDVWGQGTMVTVSS VL: not shown",48 nM,0.43 nM,3.7 nM,–,–
"P1-068761_E100fF (antibody, V domains shown) VH: EVQLVESGGGLVQPGKSLRLSCAASGFTLEDEAMHWVRQAPGKGLEWVSGINWNSEEIGYADSVKGRFTISRDNAKNSLYLQMNSLRTEDTALYYCAKVPGYSHGWIDAFDVWGQGTMVTVSS VL: not shown",20 nM,0.19 nM,1.3 nM,–,–
"P1-070868 (P1-068761_E55A) (antibody, V domains shown) VH: EVQLVESGGGLVQPGKSLRLSCAASGFTLEDEAMHWVRQAPGKGLEWVSGINWNSAEIGYADSVKGRFTISRDNAKNSLYLQMNSLRTEDTALYYCAKVPGYSHGWIDAEDVWGQGTMVTVSS VL: not shown",–,3.4 nM,120 nM,–,–
"P1-070864 (P1-068761_E30D) (antibody, V domains shown) VH: EVQLVESGGGLVQPGKSLRLSCAASGFTLDDEAMHWVRQAPGKGLEWVSGINWNSEEIGYADSVKGRFTISRDNAKNSLYLQMNSLRTEDTALYYCAKVPGYSHGWIDAEDVWGQGTMVTVSS VL: not shown",–,8.3 nM,370 nM,–,–
"P1-068761_E32Y_E100fF (antibody, V domains shown) VH: EVQLVESGGGLVQPGKSLRLSCAASGFTLEDYAMHWVRQAPGKGLEWVSGINWNSEEIGYADSVKGRFTISRDNAKNSLYLQMNSLRTEDTALYYCAKVPGYSHGWIDAFDVWGQGTMVTVSS VL: not shown",3.7 nM,0.25 nM,1.1 nM,–,–
"P1-068767_E100fF (antibody, V domains shown) VH: EVQLVESGGGLVQPGKSLRLSCAASGFTLEDYAMHWVRQAPGKGLEWVSGIDWNSENIGYADSVKGRFTISRDNAKNSLYLQMNSLRTEDTALYYCAKVPGYSGGWIDAFDDWGQGTMVTVSS VL: not shown",–,–,–,~42 nM,5200 nM
"P1-070904 (P1-068767_E30D) (antibody, V domains shown) VH: EVQLVESGGGLVQPGKSLRLSCAASGFTLDDYAMHWVRQAPGKGLEWVSGIDWNSENIGYADSVKGRFTISRDNAKNSLYLQMNSLRTEDTALYYCAKVPGYSGGWIDAEDDWGQGTMVTVSS VL: not shown",–,–,–,9.6 nM,–
"P1-068761_E32Y_E55A (antibody, V domains shown) VH: EVQLVESGGGLVQPGKSLRLSCAASGFTLEDYAMHWVRQAPGKGLEWVSGINWNSAEIGYADSVKGRFTISRDNAKNSLYLQMNSLRTEDTALYYCAKVPGYSHGWIDAEDVWGQGTMVTVSS VL: not shown",23 nM,0.31 nM,2 nM,–,–
"P1-070872 (P1-068761_H100G) (antibody, V domains shown) VH: EVQLVESGGGLVQPGKSLRLSCAASGFTLEDEAMHWVRQAPGKGLEWVSGINWNSEEIGYADSVKGRFTISRDNAKNSLYLQMNSLRTEDTALYYCAKVPGYSGGWIDAEDVWGQGTMVTVSS VL: not shown",–,4.4 nM,230 nM,–,–
"P1-070922 (P1-068767_E30D_E55A) (antibody, V domains shown) VH: EVQLVESGGGLVQPGKSLRLSCAASGFTLDDYAMHWVRQAPGKGLEWVSGIDWNSANIGYADSVKGRFTISRDNAKNSLYLQMNSLRTEDTALYYCAKVPGYSGGWIDAEDDWGQGTMVTVSS VL: not shown",–,–,–,8.3 nM,–
"P1-068761.IgG1.3 (antibody, V domains shown) VH: EVQLVESGGGLVQPGKSLRLSCAASGFTLEDEAMHWVRQAPGKGLEWVSGINWNSEEIGYADSVKGRFTISRDNAKNSLYLQMNSLRTEDTALYYCAKVPGYSHGWIDAEDVWGQGTMVTVSS VL: not shown",–,2.6 nM,71 nM,–,–

# Results, then the binder that gave them:
Kd [1],Kd [2],Kd [3],Kd [4],Kd [5],Binder
–,21 nM,210 nM,–,–,"P1-070878 (P1-068761_E55A_E56N) (antibody, V domains shown) VH: EVQLVESGGGLVQPGKSLRLSCAASGFTLEDEAMHWVRQAPGKGLEWVSGINWNSANIGYADSVKGRFTISRDNAKNSLYLQMNSLRTEDTALYYCAKVPGYSHGWIDAEDVWGQGTMVTVSS VL: not shown"
65 nM,1.4 nM,6.5 nM,–,–,"P1-068761_E56N_E100fF (antibody, V domains shown) VH: EVQLVESGGGLVQPGKSLRLSCAASGFTLEDEAMHWVRQAPGKGLEWVSGINWNSENIGYADSVKGRFTISRDNAKNSLYLQMNSLRTEDTALYYCAKVPGYSHGWIDAFDVWGQGTMVTVSS VL: not shown"
18 nM,0.21 nM,1.6 nM,–,–,"P1-068761_E32Y (antibody, V domains shown) VH: EVQLVESGGGLVQPGKSLRLSCAASGFTLEDYAMHWVRQAPGKGLEWVSGINWNSEEIGYADSVKGRFTISRDNAKNSLYLQMNSLRTEDTALYYCAKVPGYSHGWIDAEDVWGQGTMVTVSS VL: not shown"
–,10 nM,–,–,–,"P1-070900 (P1-068761_E56N_H100G) (antibody, V domains shown) VH: EVQLVESGGGLVQPGKSLRLSCAASGFTLEDEAMHWVRQAPGKGLEWVSGINWNSENIGYADSVKGRFTISRDNAKNSLYLQMNSLRTEDTALYYCAKVPGYSGGWIDAEDVWGQGTMVTVSS VL: not shown"
–,–,–,20 nM,~39 nM,"P1-068767_D52N_E100fF (antibody, V domains shown) VH: EVQLVESGGGLVQPGKSLRLSCAASGFTLEDYAMHWVRQAPGKGLEWVSGINWNSENIGYADSVKGRFTISRDNAKNSLYLQMNSLRTEDTALYYCAKVPGYSGGWIDAFDDWGQGTMVTVSS VL: not shown"
–,–,–,~82 nM,10000 nM,"P1-068767_E30D_E100fF (antibody, V domains shown) VH: EVQLVESGGGLVQPGKSLRLSCAASGFTLDDYAMHWVRQAPGKGLEWVSGIDWNSENIGYADSVKGRFTISRDNAKNSLYLQMNSLRTEDTALYYCAKVPGYSGGWIDAFDDWGQGTMVTVSS VL: not shown"
–,–,–,62 nM,–,"P1-068767_E55A_E100fF (antibody, V domains shown) VH: EVQLVESGGGLVQPGKSLRLSCAASGFTLEDYAMHWVRQAPGKGLEWVSGIDWNSANIGYADSVKGRFTISRDNAKNSLYLQMNSLRTEDTALYYCAKVPGYSGGWIDAFDDWGQGTMVTVSS VL: not shown"
–,–,–,3.2 nM,210 nM,"P1-070906 (P1-068767_D52N) (antibody, V domains shown) VH: EVQLVESGGGLVQPGKSLRLSCAASGFTLEDYAMHWVRQAPGKGLEWVSGINWNSENIGYADSVKGRFTISRDNAKNSLYLQMNSLRTEDTALYYCAKVPGYSGGWIDAEDDWGQGTMVTVSS VL: not shown"
–,50 nM,~32 nM,–,–,"P1-068761_E30D_E56N (antibody, V domains shown) VH: EVQLVESGGGLVQPGKSLRLSCAASGFTLDDEAMHWVRQAPGKGLEWVSGINWNSENIGYADSVKGRFTISRDNAKNSLYLQMNSLRTEDTALYYCAKVPGYSHGWIDAEDVWGQGTMVTVSS VL: not shown"
–,–,–,4 nM,120 nM,"P1-070916 (P1-068767_D52N_E55A) (antibody, V domains shown) VH: EVQLVESGGGLVQPGKSLRLSCAASGFTLEDYAMHWVRQAPGKGLEWVSGINWNSANIGYADSVKGRFTISRDNAKNSLYLQMNSLRTEDTALYYCAKVPGYSGGWIDAEDDWGQGTMVTVSS VL: not shown"
–,–,–,5.7 nM,380 nM,"P1-070908 (P1-068767_E55A) (antibody, V domains shown) VH: EVQLVESGGGLVQPGKSLRLSCAASGFTLEDYAMHWVRQAPGKGLEWVSGIDWNSANIGYADSVKGRFTISRDNAKNSLYLQMNSLRTEDTALYYCAKVPGYSGGWIDAEDDWGQGTMVTVSS VL: not shown"
–,15 nM,~81 nM,–,–,"P1-068761_E30D_H100G (antibody, V domains shown) VH: EVQLVESGGGLVQPGKSLRLSCAASGFTLDDEAMHWVRQAPGKGLEWVSGINWNSEEIGYADSVKGRFTISRDNAKNSLYLQMNSLRTEDTALYYCAKVPGYSGGWIDAEDVWGQGTMVTVSS VL: not shown"
–,12 nM,~110 nM,–,–,"P1-070890 (P1-068761_E30D_E55A) (antibody, V domains shown) VH: EVQLVESGGGLVQPGKSLRLSCAASGFTLDDEAMHWVRQAPGKGLEWVSGINWNSAEIGYADSVKGRFTISRDNAKNSLYLQMNSLRTEDTALYYCAKVPGYSHGWIDAEDVWGQGTMVTVSS VL: not shown"
–,19 nM,~8200 nM,–,–,"P1-070870 (P1-068761_E56N) (antibody, V domains shown) VH: EVQLVESGGGLVQPGKSLRLSCAASGFTLEDEAMHWVRQAPGKGLEWVSGINWNSENIGYADSVKGRFTISRDNAKNSLYLQMNSLRTEDTALYYCAKVPGYSHGWIDAEDVWGQGTMVTVSS VL: not shown"

# Source: patent US20230192860A1 (published 2023)
